B1: Migration and invasion-inhibitory protein (Homo sapiens), Q5JXC2 (parent)
chain: MVEAEELAQLRLLNLELLRQLWVGQDAVRRSVARAASESSLESSSSYNSETPSTPETSSTSLSTSCPRGRSSVWGPPDACRGDLRDVARSGVASLPPAKCQHQESLGRPRPHSAPSLGTSSLRDPEPSGRLGDPGPQEAQTPRSILAQQSKLSKPRVTFSEESAVPKRSWRLRPYLGYDWIAGSLDTSSSITSQPEAFFSKLQEFRETNKEECICSHPEPQLPGLRESSGSGVEEDHECVYCYRVNRRLFPVPVDPGTPCRLCRTPRDQQGPGTLAQPAHVRVSIPLSILEPPHRYHIHRRKSFDASDTLALPRHCLLGWDIFPPKSEKSSAPRNLDLWSSVSAEAQHQKLSGTSSPFHPASPMQMLPPTPTWSVPQVPRPHVPRQKP
partner: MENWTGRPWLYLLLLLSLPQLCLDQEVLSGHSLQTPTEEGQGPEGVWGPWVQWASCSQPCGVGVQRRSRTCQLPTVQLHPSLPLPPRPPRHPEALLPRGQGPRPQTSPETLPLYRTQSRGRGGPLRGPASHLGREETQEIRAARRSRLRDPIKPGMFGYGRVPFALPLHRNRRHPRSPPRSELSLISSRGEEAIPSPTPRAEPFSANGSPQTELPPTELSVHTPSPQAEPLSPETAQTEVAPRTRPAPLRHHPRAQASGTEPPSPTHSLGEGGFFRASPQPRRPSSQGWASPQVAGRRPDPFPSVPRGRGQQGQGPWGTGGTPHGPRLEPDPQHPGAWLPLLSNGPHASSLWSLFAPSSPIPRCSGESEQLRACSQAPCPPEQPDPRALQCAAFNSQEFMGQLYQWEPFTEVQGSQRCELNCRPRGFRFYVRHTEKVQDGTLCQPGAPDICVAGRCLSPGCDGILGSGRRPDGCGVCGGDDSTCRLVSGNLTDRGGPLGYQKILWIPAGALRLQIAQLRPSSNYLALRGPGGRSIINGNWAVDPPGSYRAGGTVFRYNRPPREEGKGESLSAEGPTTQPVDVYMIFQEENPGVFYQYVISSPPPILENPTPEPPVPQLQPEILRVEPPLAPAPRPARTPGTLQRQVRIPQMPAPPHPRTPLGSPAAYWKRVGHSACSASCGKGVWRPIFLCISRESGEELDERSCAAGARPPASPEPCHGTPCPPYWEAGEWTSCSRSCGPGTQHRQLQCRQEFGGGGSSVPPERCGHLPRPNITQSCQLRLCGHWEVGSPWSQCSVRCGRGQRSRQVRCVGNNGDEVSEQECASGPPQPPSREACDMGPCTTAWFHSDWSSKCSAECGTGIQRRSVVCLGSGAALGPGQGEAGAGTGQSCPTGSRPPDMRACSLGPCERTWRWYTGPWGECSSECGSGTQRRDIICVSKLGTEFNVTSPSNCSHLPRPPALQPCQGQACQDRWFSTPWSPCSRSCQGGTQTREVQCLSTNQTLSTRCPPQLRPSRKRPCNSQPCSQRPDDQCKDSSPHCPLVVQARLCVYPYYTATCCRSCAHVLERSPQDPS
B2: G-patch domain and KOW motifs-containing protein (Homo sapiens), Q92917 (parent)
chain: MADSKEGVLPLTAASTAPISFGFTRTSARRRLADSGDGAGPSPEEKDFLKTVEGRELQSVKPQEAPKELVIPLIQNGHRRQPPARPPGPSTDTGALADGVVSQAVKELIAESKKSLEERENAGVDPTLAIPMIQKGCTPSGEGADSEPRAETVPEEANYEAVPVEAYGLAMLRGMGWKPGEGIGRTFNQVVKPRVNSLRPKGLGLGANLTEAQALTPTGPSRMPRPDEEQEKDKEDQPQGLVPGGAVVVLSGPHRGLYGKVEGLDPDNVRAMVRLAVGSRVVTVSEYYLRPVSQQEFDKNTLDLRQQNGTASSRKTLWNQELYIQQDNSERKRKHLPDRQDGPAAKSEKAAPRSQHWLHRDLRVRFVDNMYKGGQYYNTKMIIEDVLSPDTCVCRTDEGRVLEGLREDMLETLVPKAEGDRVMVVLGPQTGRVGHLLSRDRARSRALVQLPRENQVVELHYDAICQYMGPSDTDDD
partner: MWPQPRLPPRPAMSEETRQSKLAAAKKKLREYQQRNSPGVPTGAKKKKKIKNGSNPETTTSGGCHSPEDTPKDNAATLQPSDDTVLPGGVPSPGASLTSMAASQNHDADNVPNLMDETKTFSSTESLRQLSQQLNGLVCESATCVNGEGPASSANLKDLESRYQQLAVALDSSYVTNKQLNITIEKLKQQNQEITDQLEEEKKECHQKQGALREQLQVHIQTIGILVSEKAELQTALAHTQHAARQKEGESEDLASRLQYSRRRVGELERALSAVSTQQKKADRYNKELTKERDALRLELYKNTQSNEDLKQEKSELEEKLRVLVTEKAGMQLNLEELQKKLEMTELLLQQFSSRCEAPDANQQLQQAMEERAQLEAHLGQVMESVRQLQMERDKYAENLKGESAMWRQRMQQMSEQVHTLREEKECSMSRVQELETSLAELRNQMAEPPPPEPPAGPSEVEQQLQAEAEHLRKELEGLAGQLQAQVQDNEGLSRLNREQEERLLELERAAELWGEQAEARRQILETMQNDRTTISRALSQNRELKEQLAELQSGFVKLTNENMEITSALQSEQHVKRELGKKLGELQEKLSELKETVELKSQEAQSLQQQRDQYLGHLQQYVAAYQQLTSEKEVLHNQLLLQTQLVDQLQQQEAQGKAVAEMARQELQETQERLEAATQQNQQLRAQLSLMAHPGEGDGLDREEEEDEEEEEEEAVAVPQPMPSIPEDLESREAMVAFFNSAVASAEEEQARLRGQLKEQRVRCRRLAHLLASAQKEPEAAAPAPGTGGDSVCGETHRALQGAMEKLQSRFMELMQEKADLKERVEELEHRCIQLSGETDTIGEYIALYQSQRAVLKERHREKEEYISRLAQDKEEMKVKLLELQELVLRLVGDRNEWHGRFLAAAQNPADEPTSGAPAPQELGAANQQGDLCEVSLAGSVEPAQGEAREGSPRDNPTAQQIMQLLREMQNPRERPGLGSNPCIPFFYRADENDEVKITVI
B3: Transmembrane protein 79 (Homo sapiens), Q9BSE2 (parent)
chain: MTEQETLALLEVKRSDSPEKSSPQALVPNGRQPEGEGGAESPGAESLRVGSSAGSPTAIEGAEDGLDSTVSEAATLPWGTGPQPSAPFPDPPGWRDIEPEPPESEPLTKLEELPEDDANLLPEKAARAFVPIDLQCIERQPQEDLIVRCEAGEGECRTFMPPRVTHPDPTERKWAEAVVRPPGCSCGGCGSCGDREWLRAVASVGAALILFPCLLYGAYAFLPFDVPRLPTMSSRLIYTLRCGVFATFPIVLGILVYGLSLLCFSALRPFGEPRREVEIHRRYVAQSVQLFILYFFNLAVLSTYLPQDTLKLLPLLTGLFAVSRLIYWLTFAVGRSFRGFGYGLTFLPLLSMLMWNLYYMFVVEPERMLTATESRLDYPDHARSASDYRPRPWG
partner: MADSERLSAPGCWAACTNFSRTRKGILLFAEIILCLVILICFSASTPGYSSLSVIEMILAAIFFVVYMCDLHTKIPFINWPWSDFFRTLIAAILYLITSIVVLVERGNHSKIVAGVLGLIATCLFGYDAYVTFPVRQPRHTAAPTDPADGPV

Variants of: B1
Details: with atl4_human ADAMTSL4, Q6UY14

Row | effect of a mutation on the interaction | Variant
1 | with no effect | R171C

Variants of: B2
Details: with goga2_human GOLGA2, Q08379

Row | effect of a mutation on the interaction | Variant
2 | with no effect | A129T
3 | with no effect | V393A

Variants of: B3
Details: with plp2_human PLP2, Q04941

Row | effect of a mutation on the interaction | Variant
4 | with no effect | D144G
5 | with no effect | S104T
6 | with no effect | V147M

Reference: IntAct's records for PubMed 31515488
